Positions count from the first letter of the chain named. Numbers in names are those of the source. Each block holds one molecule with its values, some of them ahead of it.
Key:
[1] = ATPase activity at 0.05 ppm enzyme on 0.1 mM ATP (absorbance 620 nm); type: biochemical; conditions: for Activity on ATP (absorbance at 620 nm, blank subtracted), pH 5.0: 50 mM IVIES buffer pH 5; for Activity on ATP (absorbance at 620 nm, blank subtracted), pH 6.0: 50 mM IVIES buffer pH 6
Method: Enzyme activity towards ATP or ADP at pH 3 to 9: The ability of candidate enzymes to degrade ATP or ADP to AMP and free phosphate (Pi) was measured using a standard malachite green phosphate detection kit (Sigma Aldrich cat no. MAK307). The enzyme reactions were carried out in 96-well plates with a total volume of 150 μL and contained 250 μM of a substrate, 50 mM of a buffer, 5 mM CaCl2, and a variable concentration of enzyme. The substrate was ATP or ADP. The buffer was glycine (pH 3), acetate (pH 4, 4.5, 5), bis-Tris (pH 5.5, 6, 6.5), or Tris (pH 7, 8, 9). The concentration of enzyme varied from about 1 μg/mL to 1 ng/mL and was adjusted based on the activity of the enzyme so that the amount of phosphate released during the assay was with the dynamic range of the assay (5-100 μM phosphate). The enzyme concentration was determined by the absorbance at 280 nm and using the predicted molecular weight and molar extinction coefficient to calculate the concentration. The enzyme reaction was initiated by the addition of 15 μL enzyme with 135 μL of the other reaction components such that the final reaction composition was as previously described. The reaction was stopped after 5 min by mixing 80 μL of the reaction mixture with 20 μL of the malachite green working reagent. The malachite green working reagent was prepared according to the manufacturer's protocol by mixing 100 parts reagent A with 1 part reagent B. Phosphate standard solutions (0-80 μM) and a negative control reaction without enzyme were also mixed with the malachite green working reagent. All samples were tested in duplicate. The malachite green reaction mixture was allowed to rest at room temperature for 45-60 min and the absorbance at 620 nm was measured. Lastly, the absorbance of the phosphate standards were used to convert the absorbance readings of each sample into phosphate concentrations and the negative control was subtracted from each reaction.
Enzymes of interest were assayed against ATP substrate. The ATPase activity was measured at 0.05 ppm concentration in 50 mM IVIES buffer pH 6 and pH 5 with 0.1 mM ATP as substrate as described in Example 1. Commercial potato apyrase was used as reference. The absorbance at 620 nm was measured and the absorbance of a blank sample (water) was subtracted from each sample.

[2] = Enzyme acid resistance: residual activity on ATP after incubation at pH 2; type: physicochemical; conditions: FIG. 4; for stability in acid resistance assay: pH 2 for 15 or 60 min
Method: Enzyme acid resistance: Candidate enzymes were tested for their ability to resist inactivation at low pH by incubating the enzymes in an “acid buffer” of 50 mM glycine and 5 mM CaCl2 at pH 2 for 15 or 60 minutes and comparing their activity to enzymes in a “control buffer” at their optimum pH. The optimum buffer for CRC21323 and CRC21322 was 50 mM acetate pH 4.5 with 5 mM CaCl2. The optimum buffer for all other enzymes was 50 mM bis-Tris pH 6.5 with 5 mM CaCl2. After incubating in the acidic glycine buffer, the enzyme mixtures were neutralized by mixing with an equal volume of neutralization buffer. The neutralization buffer for CRC21323 and CRC21322 was 100 mM acetate and 10 mM CaCl2 at pH 4.5. The neutralization buffer for the other enzymes was 100 mM bis-Tris and 10 mM CaCl2 at pH 6.5. Next, the acid-stressed and control enzyme were tested for their ability to release phosphate from ATP using the reaction conditions and malachite green assay as described in with the following changes. The only substrate tested was ATP. CRC21323 and CRC21322 were tested with a buffer of acetate pH 4.5, but all other enzymes were tested in a buffer of bis-Tris pH 6.5. After determining the concentration of phosphate in each reaction, the residual activity of each enzyme after 15 or 60 min incubation in the “acid buffer” was calculated by dividing the acid-stressed by the control enzyme phosphate concentrations for each enzyme.

[3] = system: Acute DSS colitis in C57BL/6 mice; test: Chemically-induced DSS colitis mouse model, disease activity index (DAI); type: in vivo
Text: Acute DSS colitis was induced in C57BL/6 mice according to the previously published method with minor modification (Sann et al., 2013, Life Sci. April 9; 92(12):708-18). The mice were fed 3% (w/v) DSS dissolved in the drinking water on day one to day five. Fresh DSS solution was provided every other day. Control mice (Group 1) drank only distilled water. Groups 4 to 8 received candidate acid phosphatase enzymes by oral gavage and groups 9 to 12 received enzymes via catheter (Table 2). DAI was calculated as described earlier (Cooper et al., 1993, Laboratory investigation; a journal of technical methods and pathology. 69(2):238-49).

[4] = Relative activity on ATP of CRC22110 single-site variants; type: biochemical; conditions: in comparison to CRC22110 wild type
[5] = Enzyme substrate specificity on nucleotide substrates (malachite green assay); type: biochemical; conditions: FIG. 3; bis-Tris pH 6.5 (CRC21323, CRC21322 acetate pH 4.5; CD39 pH 7)
Method: Enzyme activity towards ATP or ADP at pH 3 to 9: The ability of candidate enzymes to degrade ATP or ADP to AMP and free phosphate (Pi) was measured using a standard malachite green phosphate detection kit (Sigma Aldrich cat no. MAK307). The enzyme reactions were carried out in 96-well plates with a total volume of 150 μL and contained 250 μM of a substrate, 50 mM of a buffer, 5 mM CaCl2, and a variable concentration of enzyme. The substrate was ATP or ADP. The buffer was glycine (pH 3), acetate (pH 4, 4.5, 5), bis-Tris (pH 5.5, 6, 6.5), or Tris (pH 7, 8, 9). […] The enzyme concentration was determined by the absorbance at 280 nm and using the predicted molecular weight and molar extinction coefficient to calculate the concentration. […] The malachite green reaction mixture was allowed to rest at room temperature for 45-60 min and the absorbance at 620 nm was measured. Lastly, the absorbance of the phosphate standards were used to convert the absorbance readings of each sample into phosphate concentrations and the negative control was subtracted from each reaction.
Enzyme substrate specificity: The activity of the enzymes on different nucleotide substrates was tested using the malachite green assay. […] After converting the absorbance to phosphate concentration, the activity of each enzyme was set relative to the activity on ATP.

- Activity on ATP (absorbance at 620 nm, blank subtracted), pH 5.0 [1]: 0.39
- Activity on ATP (absorbance at 620 nm, blank subtracted), pH 6.0 [1]: 0.10
B1: CRC21323: Acid phosphatase (Class A), accession WP_054306375.1, SEQ ID NO:18 (predicted mature), SEQ ID NO:2 (protein, listed as Serratia rubidaea)
chain: AQTPGFLTPETAPDSLQILPPPPAENTTAFLNDKAAYETGKTLKDAQRQALAASDADYKNISAAFSAAFGEEISPEKTPALYALLQGVLQDSHDYAMRAAKDHYMRVRPFVVYKDSTCTPEKDKSMAKTGSYPSGHASFGWATALVLTEINPARETEILKRGYDFGQSRVVCGAHWQSDVDNGRLMGAAVVAALHGNQGFNDALAKAKAEFAKR
- stability in acid resistance assay [2]: least stable
- reduction in DAI score compared to control ([3]; catheterized mice, test items via cecum BID, FIG. 6A, 6B): 40%
- improvement in DAI score compared to control ([3]; non-catheterized mice, oral gavage BID, FIG. 5A, 5B): 43%

- Activity on ATP (absorbance at 620 nm, blank subtracted), pH 5.0 [1]: 0.40
- Activity on ATP (absorbance at 620 nm, blank subtracted), pH 6.0 [1]: 0.07
B2: CRC21322: Acid phosphatase (Class A), accession AEG96708.1, SEQ ID NO:17 (protein)
chain: KENKGFLNADTSPDSLAILPPPPTENSVAFLQDKADYETGRVLKNKERTELAAKDANYKNFGQAFSEAFGMVISAERTPVLYLLLSEVLQDSHDYAMRSAKDHYMRVRPFVLYKNPTCTPEKDDKMAKTGSYPSGHASFGWAAALVLAEINPARETEILKRGMDFGESRVVCGAHWQSDVDSGRIMGAAVVAALHANPRFANTLSEAKKEFAALSAKSE
modifications: Klebsiella aerogenes
- stability in acid resistance assay [2]: least stable

- Activity on ATP (absorbance at 620 nm, blank subtracted), pH 5.0 [1]: 0.45
- Activity on ATP (absorbance at 620 nm, blank subtracted), pH 6.0 [1]: 0.27
B3: CRC21328: GDA1/CD39 family enzyme, accession CCD05982.1, SEQ ID NO:6 (protein, listed as Legionella pneumophila)
chain: DTNPCEKHSCIAVIDAGSTGSRLHIYSYDTDNTNTPIHIEEIWNKKIKPGFASIQPNSVTIDAYLTMLLADAPIHNIPVYFYATAGMRLLPQSQQKKYYDELEYWFRQQSQWQLVEAKTITGNDEALFDWLAVNYKLDTLKSVQNKSVGVMDMGGASVQIVFPMPKNAEISKHNQVELNIYGQNINLYVHSFLGLGQTEMSHQFLNSPSCFANDYPLPDGESGQGNAPSCKEEVTSLMNSVHKVNQQIQPLLALNPVNEWYSIGGISNLASSQLFHFENSELTNQSLLQQGDNQICHQQWDILNGQYPDDEYLYQYCLLSSYYYALMVDGYGINPNQTIHYIPPEQNLDWTIGVVLHRA
- residual activity after incubation at pH 2 ([2]; 60 min in acid buffer, 50 mM glycine, 5 mM CaCl2): greatest resistance

B4: CRC22110v9: single-site variant F205L of CRC22110 (SEQ ID NO: 9) (protein, listed as Gallaecimonas xiamenensis)
chain: ADKPACRAVFDAGSSGTRLFLYVQQEGGWQPWPGAKLGALADPVRQHQGPKAMAALAADLANSLEALRQDGPTNSEGQPRWQGFDWQQACRLQSVSVLATAGMRLAEQQDPVASVALWQEVQQALAGLLGPAVAIDARTLTGFEEGFYAWLAARARLGRSDMGIVEMGGASSQVAFPCPACDRADDAVQQVRLEGQTLDFYSYSLLGLGQDEAPKVLGVPHACRYGAGVKDPNWQLGQCQAQLPLTLGRALKDPYNFQGQGQGGYRQVPTEKAGVKDWLLTGAFQYNTPDQLDSCCLNQGQCYQPSTACFRVAYLPLYLDSLGVDPHSPDLDVSWTLGAVLCRNEQCLAPSKPPCRWRKAGCLAPSVGDGRPEGRPGQQPGGVQHRQH
- Relative activity (%) on ATP [4]: 68%

B5: CRC22110v1: single-site variant S204A of CRC22110 (SEQ ID NO: 9) (protein, listed as Gallaecimonas xiamenensis)
chain: B4 chain with S204A, L205F
- Relative activity (%) on ATP [4]: 37%

B6: CRC22110v7: single-site variant S204T of CRC22110 (SEQ ID NO: 9) (protein, listed as Gallaecimonas xiamenensis)
chain: B4 chain with S204T, L205F
- Relative activity (%) on ATP [4]: 53%

B7: CRC22110v10: single-site variant L206I of CRC22110 (SEQ ID NO: 9) (protein, listed as Gallaecimonas xiamenensis)
chain: B4 chain with L205F, L206I
- Relative activity (%) on ATP [4]: 16%

B8: CRC22110v5: single-site variant G209A of CRC22110 (SEQ ID NO: 9) (protein, listed as Gallaecimonas xiamenensis)
chain: B4 chain with L205F, G209A
- Relative activity (%) on ATP [4]: 16%

B9: CRC22110v3: single-site variant G207A of CRC22110 (SEQ ID NO: 9) (protein, listed as Gallaecimonas xiamenensis)
chain: B4 chain with L205F, G207A
- Relative activity (%) on ATP [4]: 60%

B10: CRC22110v4: single-site variant L208A of CRC22110 (SEQ ID NO: 9) (protein, listed as Gallaecimonas xiamenensis)
chain: B4 chain with L205F, L208A
- Relative activity (%) on ATP [4]: 74%

B11: CRC22110v2: single-site variant L206A of CRC22110 (SEQ ID NO: 9) (protein, listed as Gallaecimonas xiamenensis)
chain: B4 chain with L205F, L206A
- Relative activity (%) on ATP [4]: 60%

- Activity on ATP (absorbance at 620 nm, blank subtracted), pH 5.0 [1]: 0.26
- Activity on ATP (absorbance at 620 nm, blank subtracted), pH 6.0 [1]: 0.28
B12: CRC22105: GDA1/CD39 family enzyme, accession WP_045094910.1, SEQ ID NO:8 (protein, listed as Legionella fallonii)
chain: ENASCDKHQCITVIDAGSTGSRVHIYAYDLDETNTPTNINEIWTKKIKPGFATIDPNYNTIDAYLTILLSGAPTQQGPVYFYATAGMRLLPASKQKLYYQELQRWFTQQTQWHFVEAKTITGNEEALYDWLSVNYHLGTLKSVQNKAIGVMDMGGASVQIVFPIQKNENIHGRSQVELNIYGQRINLFVHSFLGLGQTEMSHQFLNSTSCFTNDYPLPDGEMGLGNALSCEQEVSSLMNAVHGVSKTIQPVLAANSVDSWYAIGGLTNLADNKLFNFVNGQLTNQSLIEQADSQICHQQWSKLDAQYPNDDYIYGYCLFSSYFYALMVDGYGISPEQTVNYISPSINLDWTKGVVLHHLS
- activity on different nucleotide substrate relative to ATP [5]: noticeably reduced activity on UTP/UDP and CTP/CDP

From patent US20240124857A1, “COMPOSITION FOR GUT HEALTH” (DUPONT NUTRITION BIOSCIENCES APS, priority 2021, published 2024)
